Laboratory results from article PMC6699858, “Ternary structure of the outer membrane transporter FoxA with resolved signalling domain provides insights into TonB-mediated siderophore uptake” (eLife, 2019).

Experiments:
FoxA = molecular target: T1, FoxA (Pseudomonas aeruginosa, UniProt Q9I116); assay: tryptophan fluorescence quenching (Kd […]); also ITC in nanodiscs (Kd […]) and co-crystal structures without and with TonBCt; type: binding
T1 construct: Full-length FoxA, purified in nonyl glucopyranoside

[1] = molecular target: T2, FoxA from Pseudomonas aeruginosa strain PAO1, full-length (Pseudomonas aeruginosa strain PAO1, UniProt Q9I116 1-820, Signal peptide taken as removed in the outer membrane; text gives the mature start as 44 or 45, and 45 is used. His6 tag removed by TEV, residual TEV-site residues at the C-terminus omitted. Ferrioxam); assay: ITC; 150 μM TonBCt in the syringe, 15 μM apo FoxA in MSP1D1/POPC nanodiscs in the cell; 20 mM HEPES, 150 mM NaCl, pH 7.5; 26 °C; single-site model; triplicates, SD; conditions: both partners purified
[2] = molecular target: T2, FoxA from Pseudomonas aeruginosa strain …; assay: ITC; 150 μM TonBCt in the syringe, 15 μM ferrioxamine B-bound FoxA in MSP1D1/POPC nanodiscs in the cell (dialysed against 1 mM FoaB); 20 mM HEPES, 150 mM NaCl, pH 7.5; 26 °C; single-site model; triplicates, SD; conditions: both partners purified

CC(=O)N([O-])CCCCCNC(=O)CCC(=O)N([O-])CCCCCNC(=O)CCC(=O)N([O-])CCCCCN.[Fe+3] [FoaB, ferrioxamine B] gave a Kd (FoxA) of 100 ± 10 nM.

B1: TonBCt, C-terminal domain of TonB1 from Pseudomonas aeruginosa strain PAO1 (residues 251-340) (domain or fragment, UniProt Q51368 251-340, looked up)
chain: DSDIKPLRMDPPVYPRMAQARGIEGRVKVLFTITSDGRIDDIQVLESVPSRMFDREVRQAMAKWRFEPRVSGGKIVARQATKMFFFKIEK
notes: TonB1, Pseudomonas aeruginosa PAO1, residues 251-340 (C-terminal domain); also called TonB fragment; C-terminal TonB domain; source: E. coli BL21 Gold, purified (HisTrap Ni-NTA, TEV, reverse purification)
In the case of B1, the Kd [1] is reported as 111 nM, the dH [1] is reported as -10.1 kcal/mol and the Kd [2] is reported as 6.6 nM. It also gave a dH [2] of -18.1 kcal/mol.
